Among the data in patent US20130115676 are activity (fidelity index) values, retold here.

The data set concerns T1, SapI (Saccharopolyspora sp.).
T1 sequence: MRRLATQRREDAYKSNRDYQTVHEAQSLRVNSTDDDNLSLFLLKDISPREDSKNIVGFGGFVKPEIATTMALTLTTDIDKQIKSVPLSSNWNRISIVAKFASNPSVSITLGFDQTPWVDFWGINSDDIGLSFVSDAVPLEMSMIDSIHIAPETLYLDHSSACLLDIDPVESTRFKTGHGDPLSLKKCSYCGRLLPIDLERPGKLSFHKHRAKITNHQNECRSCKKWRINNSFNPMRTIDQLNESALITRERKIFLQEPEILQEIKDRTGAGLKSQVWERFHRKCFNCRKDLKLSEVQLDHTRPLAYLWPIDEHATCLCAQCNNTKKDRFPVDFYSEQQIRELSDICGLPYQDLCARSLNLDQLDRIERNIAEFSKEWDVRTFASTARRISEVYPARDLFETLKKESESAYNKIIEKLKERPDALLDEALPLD
The data set is described as follows: cleavage_in_vitro. As to conditions: NEB4, 10 mM Mg acetate, 37 C.

For lambda DNA, the activity (fidelity index) stood at 16.
